Laboratory results: PMC8551656, “Discovery of a novel role of tumor suppressor PDCD4 in stimulation of translation termination” (The Journal of Biological Chemistry, 2021)

Target: T1, poly(A)-binding protein (PABP) (human, UniProt P11940 1-636)
T1 construct: source: E. coli BL21, purified (Ni-NTA agarose, ion-exchange chromatography)
Assay: pull-down; GST-PDCD4 (40 pmol) incubated with PABP (40 pmol) in solution, 20 μl, 1 h at 4 °C, 25 mM Tris-HCl pH 7.5, 10% glycerol, 100 mM KCl, 2.5 mM MgCl2, 2 mM DTT, 0.25 mM spermidine, 0.2 mM GTP; then held on glutathione-sepharose 4B, four washes, release by TEV protease, western blot
Settings: both partners purified

T1 sequence (P11940 whole entry): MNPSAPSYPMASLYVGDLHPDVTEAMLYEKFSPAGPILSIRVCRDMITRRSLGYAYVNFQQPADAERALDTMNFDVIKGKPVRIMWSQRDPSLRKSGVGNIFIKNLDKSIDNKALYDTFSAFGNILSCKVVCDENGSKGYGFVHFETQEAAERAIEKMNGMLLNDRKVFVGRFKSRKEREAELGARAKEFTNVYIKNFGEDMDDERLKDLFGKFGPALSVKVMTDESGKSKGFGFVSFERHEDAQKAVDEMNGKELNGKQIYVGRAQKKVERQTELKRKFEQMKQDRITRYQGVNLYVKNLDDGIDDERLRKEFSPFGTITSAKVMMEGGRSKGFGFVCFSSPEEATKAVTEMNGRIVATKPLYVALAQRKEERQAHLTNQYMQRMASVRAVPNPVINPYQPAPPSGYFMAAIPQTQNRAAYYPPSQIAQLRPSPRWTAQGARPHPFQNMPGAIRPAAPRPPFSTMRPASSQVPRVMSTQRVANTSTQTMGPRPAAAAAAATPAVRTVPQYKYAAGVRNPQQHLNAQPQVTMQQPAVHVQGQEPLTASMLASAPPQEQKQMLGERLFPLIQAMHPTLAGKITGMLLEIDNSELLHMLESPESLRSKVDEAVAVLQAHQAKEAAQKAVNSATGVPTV

B1: GST-tagged programmed cell death 4 protein (PDCD4) (natural protein, human, UniProt Q53EL6-1 1-469, looked up)
chain: MDVENEQILNVNPADPDNLSDSLFSGDEENAGTEEIKNEINGNWISASSINEARINAKAKRRLRKNSSRDSGRGDSVSDSGSDALRSGLTVPTSPKGRLLDRRSRSGKGRGLPKKGGAGGKGVWGTPGQVYDVEEVDVKDPNYDDDQENCVYETVVLPLDERAFEKTLTPIIQEYFEHGDTNEVAEMLRDLNLGEMKSGVPVLAVSLALEGKASHREMTSKLLSDLCGTVMSTTDVEKSFDKLLKDLPELALDTPRAPQLVGQFIARAVGDGILCNTYIDSYKGTVDCVQARAALDKATVLLSMSKGGKRKDSVWGSGGGQQSVNHLVKEIDMLLKEYLLSGDISEAEHCLKELEVPHFHHELVYEAIIMVLESTGESTFKMILDLLKSLWKSSTITVDQMKRGYERIYNEIPDINLDVPHSYSVLERFVEECFQAGIISKQLRDLCPSRGRKRFVSEGDGGRLKPESY
notes: human PDCD4, isoform 1, UniProt Q53EL6-1; cDNA cloned into pGEX-6p-1; printed primers run from the start codon to the last codon; Held on glutathione-sepharose by GST in the pull-down; also called GST-PDCD4; recombinant PDCD4; source: E. coli BL21, purified (glutathione-sepharose 4B, eluted with glutathione; HiTrapQ)
binding result: binds
